Assays:
Experiment in all cases: purified protein, by the assay type
Settings in all cases: pH 8.0; 25.0 °C
[1] = substrate: Nc1ccc(C(=O)O)c(F)c1
[2] = substrate: Nc1ccc(C(=O)O)cc1
[3] = substrate: Nc1ccc(C(=O)O)c(O)c1

B1: S. aureus DHPS (Staphylococcus aureus) (protein)
chain: MTKTKIMGILNVTPDSFSDGGKFNNVESAVTRVKAMMDEGADIIDVGGVSTRPGHEMITVEEELNRVLPVVEAIVGFDVKISVDTFRSEVAEACLKLGVDIINDQWAGLYDHRMFQVVAKYDAEIVLMHNGNGNRDEPVVEEMLTSLLAQAHQAKIAGIPSNKIWLDPGIGFAKTRNEEAEVMARLDELVATEYPVLLATSRKRFTKEMMGYDTTPVERDEVTAATTAYGIMKGVRAVRVHNVELNAKLAKGIDFLKENENARHNFS
**Q.** B1 was tested. Which Km [1] did it give?
**A.** The Km was 5 ± 2 µM.

**Q.** And the kcat [1]?
**A.** The kcat was 200 ± 20 min^–1.

**Q.** And the Km [2]?
**A.** Its Km is 2 ± 1 µM.

**Q.** And the kcat [2]?
**A.** Its kcat is 170 ± 15 min^–1.

**Q.** And the Km [3]?
**A.** Its Km is 8 ± 1 µM.

**Q.** And the kcat [3]?
**A.** The kcat was 220 ± 10 min^–1.
